Experimental data taken from article PMC3025569.

Molecular target: ThaI restriction endonuclease (Thermoplasma acidophilum strain ATCC 25905)
Test: SEC

- stoichiometry N: 2
Substance: ThaI restriction endonuclease (enzyme)
